Assay [1] deals with T1, EBP (Homo sapiens, UniProt P19235).
T1 construct: one encoding amino acids 1-225 of the extracellular domain of the mature hEPOR; made in house; host or cells: E. coli BL21(DE3)pLysS (plasmid pSAM3)
T1 sequence (P19235 25-249): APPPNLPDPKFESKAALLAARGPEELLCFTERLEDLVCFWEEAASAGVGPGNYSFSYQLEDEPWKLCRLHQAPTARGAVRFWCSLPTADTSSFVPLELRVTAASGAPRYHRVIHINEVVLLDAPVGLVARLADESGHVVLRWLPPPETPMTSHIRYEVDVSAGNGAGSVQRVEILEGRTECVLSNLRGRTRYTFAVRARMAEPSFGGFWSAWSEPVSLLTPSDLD
Kind of assay: EBP bead competitive binding assay vs [125I]EPO. The following applies: for competition in EBP-bead binding assay: result in words. The text has this: EBP as produced by the above method contains one free sulfhydryl group which can be modified without affecting the solution phase binding of ligand. In order to immobilize the EBP for equilibrium binding analysis this observation was extended for the covalent attachment of EBP to agarose beads. The iodoacetyl activation chemistry of Sulfolink beads (Pierce Chemical Co, Rockford, Ill.) is specific for free thiols and assures that the linkage is not easily reversible. EBP-Sulfolink beads were made as follows: Sulfolink gel suspension (10 ml) was mixed with coupling buffer (40 ml: 50 mM TRIS, pH 8.3, 5 mM EDTA) and the gel was allowed to settle. The supernatant was removed and the EBP (0.3-1 mg/ml in coupling buffer) to be bound was added directly to the washed beads. The mixture was rocked gently for 30 minutes at room temperature, and the beads were allowed to settle for 1 hour at room temperature. The supernatant was removed and saved, and the beads were washed twice with 20 ml of coupling buffer. The washes were retained as well. The beads were then treated with 20 ml of 0.05 M cysteine for 30 minutes at room temperature to block unbound sites. Finally, the beads were washed with 50 ml of 1 M NaCl, then with 30 ml of PBS, and resuspended in 20 ml of PBS and stored at 4° C. The amount of EBP which was covalently bound to the beads was determined by comparing the OD280 of the original EBP solution to the total OD280 recovered in the reaction supernatant and the two 20 ml washes. Typically, 40-60% of the applied EBP remains associated with the beads.
Competitive binding assays of peptides were performed as described herein. Individual peptides were dissolved in DMSO to prepare a stock solution of 1 mM. […] Initial assay points with no added peptide were included in each assay to determine total binding. Binding mixtures were incubated overnight at room temperature with gentle rocking. The beads were then collected using Micro-columns (Isolab, Inc.) and washed with 3 mL of wash buffer (PBS/5% BSA). The columns containing the washed beads were placed in 12×75 mm glass tubes and bound radioactivity levels determined in a gamma counter.

Assay [2] has as its target T2, EBP-Ig (Homo sapiens, UniProt P19235).
T2 construct: one encoding amino acids 1-225 of the extracellular domain of the mature hEPOR; made in house
Kind of assay: EBP-Ig Flash Plate EPO radioligand binding assay. As to conditions: for IC50: read-out: EBP-Ig Binding IC 50; for competition in EBP-Ig binding assay: result in words. An excerpt:
The interaction of biotin and strepavidin is frequently employed to capture and effectively immobilize reagents useful in assay protocols and has been employed here as a simple method to capture and immobilize EBP-Ig. EBP-Ig is initially randomly modified with an amine reactive derivative of biotin to produce biotinylated-EBP-Ig. Use of strepavidin coated plates allows the capture of the biotinylated EBP-Ig on the surface of a scintillant impregnated coated well (Flash plates, NEN-DuPont). […] The amount of light produced was quantified to estimate the amount of ligand binding. The specific assay format was suitable for the multi-well plate capacity of a Packard TopCount Microplate Scintillation counter.
Biotinylated EBP-Ig (3S mutant) was prepared as follows. EBP-Ig (3 ml, OD280 2.9) was exchanged into 50 mM sodium bicarbonate, pH 8.5 using a Centriprep 10 ultrafiltration device. […] 10 μl of a 4 mg/ml solution of NHS-LC-Biotin (Pierce) was added and the reaction mixture placed on ice in the dark for two hours. Unreacted biotin was removed by exchange of the reaction buffer into PBS in a Centriprep 10 device and the protein reagent aliquoted and stored at […].
All wells were adjusted to a final DMSO concentration of 5%. […] After all additions were made, the plate was covered with an adhesive top seal and placed in the dark at room temperature overnight. The next day all liquid was aspirated from the wells to limit analyte dependent quench of the signal, and the plates were counted on a Packard TOPCOUNT Microplate Scintillation Counter. […] Corrected total binding (CTB) was calculated as: TB-NSB=CTB. The concentration of test peptide which reduced CTB to 50% was reported as the IC50.

In assay [3] the target is T2, EBP-Ig. Kind of assay: Fluorescence polarization competitive binding assay with fluorescein-RWJ 61718. As to conditions: for competition in FP/EBP-Ig assay: fluorescein-RWJ 61718 as labelled ligand, result in words; for IC50: read-out: FP/EBP-Ig IC50. As to the method:
Fluorescence polarization (FP) is a useful technique capable of providing information on changes in molecular volume which occur upon the association or dissociation of two molecules. […] Conversely, if a non-fluorescent competitor molecule is added to this complex then a decrease in the fluorescence polarization value can be anticipated [Checovich, W. J., Bolger, R. E. & Burke, T. Fluorescence polarization-a new tool for cell and molecular biology, Nature 375, 254-256 (1995)]. RWJ 61718 was labeled with a fluorescein reporter group by treating 10 mg of peptide solubilized in 3 ml of PBS with 17.9 mg of fluorescein isothiocyanate dissolved in 1 ml DMSO (added in 100 μl aliquots). RWJ 61718 contained a single amine (N-terminus) and 1:1 label incorporation was expected. This mixture was placed on ice and the solution cleared by the addition of 1.0 ml of DMSO. Following a 34 hour incubation at 4° C., fluorescein labeled RWJ 61718 was isolated by reverse phase HPLC. The entire reaction mixture was diluted 1:2 with 0.1% trifluoroacetic acid (TFA; mobile phase A), pumped onto a C-18 reversed phase preparative column (Vydac #218tp54) at 8 ml/min and eluted with a 90 minute linear gradient of 0-100% mobile phase B (acetonitrile containing 0.7% TFA). Fractions containing fluorescent products (excitation wavelength 488 nm, emission wavelength 530 nm) at 530 nm were collected and lyophilized. A highly fluorescent peak eluting at near 60 minutes (ca 60% mobile phase B) was determined to be the desired product by monitoring FP changes in the presence of EBP-Ig.
A competitive FP assay using fluorescein labeled RWJ 61718 as the receptor ligand was established as follows using a Fluorescence Polarization Microtiter System (Jolley Consulting). Test peptides at variable concentrations and EBP-Ig (3S mutant, 0.025 mg/ml) were incubated for 1 hour at room temperature in 90 μl PBS and dispensed into a Dynatech Microfluor plate 96 well plate. Fluorescein-RWJ 61718 was added to each well (10 μl in 0.1% TFA) to a final concentration of 2.5 μM followed by an additional 1 hr incubation at room temperate in the dark. Values for milliPolarization (mP) were obtained at an instrument voltage setting of 8.0. Baseline peptide values were determined from wells which contained only labeled peptide and PBS. Total mP readings were determined in test wells which contained labeled peptide and EBP-Ig only. Peptide concentration dependent competitive reduction in mP values were determined and an IC50 value calculated.

Assay [4] concerns the target T1, EBP. Kind of assay: DPDPB crosslinking: dimerization of EBP by EPO mimetic peptides (SDS-PAGE). It is filed as biochemical. As to conditions: 22 μM EBP, 1.1 mM DPDPB, 400 μM peptide, visual detection of dimer product. As to the method: Peptide-mediated receptor dimerization was stabilized for study using the non-water soluble homobifunctional sulfhydryl reactive cross linking reagent DPDPB (1,4-di-[2'-pyridyldithio)propionamido]butane, Pierce Chemical Co., Rockford, Ill.). EBP (22 μM) was incubated in the presence or absence of DPDPB (1.1 mM), 400 μM peptide ligand, 75 μl of PBS, pH 7.5 with all reactions and controls containing a final concentration of 4.4% DMSO and 0.007% TFA. These samples were incubated for 4 hours at room temperature and stored at 4° C. for 12 hours before analysis under reducing and non-reducing conditions by SDS-PAGE (10-20% gradient gels, Integrated Separations Systems, Natick, Mass.).

The test system of the next assay is FDC-P1/hER cells. Kind of assay: EPO dependent cell proliferation assay. As to conditions: for FDCP-P1-hER ED50 / EC50: amount of peptide for one half of maximal activity of recombinant EPO, 42 h + 6 h [3H]thymidine; for EPO mimetic activity / proliferative capacity: cell proliferation, result in words; for EC50: 2880 min, read-out: FDCP-P1-hER ED50. Format: cell-based, human EPO receptor. How it is done:
At 24 hours, the cells were counted, resuspended at 800,000 cells/ml and dispensed at 40,000 cells/well. Stock solutions of the respective peptides (10 mM in DMSO) were prepared and dispensed in triplicate to final concentrations of 1×10^-10 M through 1×10^-5 M and adjusted to a final volume of 0.2 ml. […] A standard EPO dose response curve was generated with each assay series. After a 42 hours incubation at 37° C. (about 2 cell doublings) 1 μCi/well of [^3 H] thymidine was added and the incubation continued for 6 hours at which time the cells were harvested and counted to assess [^3 H] thymidine incorporation as a measure of cell proliferation.

The mark [5] stands for this setting: EBP-Ig (3S mutant) 0.025 mg/ml, fluorescein-RWJ 61718 2.5 μM.
Setting [6] is: 0.5 nM [125I]EPO, 2.5% DMSO, overnight, room temperature.
Setting [7] is: 0.5 nM [125I]EPO, 1 μg/ml biotinylated EBP-Ig (3S mutant), 5% DMSO, overnight.

Like-named read-outs stand apart in the source and are kept apart here. Bridge positions count the residues as written; N and C are the ends. Square brackets hold non-standard residues; d marks the D form. Ends that are not written are not given here. Peptide text beside a SMILES is read from it. Tyr(3,5-Br2) = N[C@@H](Cc1cc(Br)c(O)c(Br)c1)C(=O)O

T2 sequence (P19235 with tags, fused parts or gaps limits assumed): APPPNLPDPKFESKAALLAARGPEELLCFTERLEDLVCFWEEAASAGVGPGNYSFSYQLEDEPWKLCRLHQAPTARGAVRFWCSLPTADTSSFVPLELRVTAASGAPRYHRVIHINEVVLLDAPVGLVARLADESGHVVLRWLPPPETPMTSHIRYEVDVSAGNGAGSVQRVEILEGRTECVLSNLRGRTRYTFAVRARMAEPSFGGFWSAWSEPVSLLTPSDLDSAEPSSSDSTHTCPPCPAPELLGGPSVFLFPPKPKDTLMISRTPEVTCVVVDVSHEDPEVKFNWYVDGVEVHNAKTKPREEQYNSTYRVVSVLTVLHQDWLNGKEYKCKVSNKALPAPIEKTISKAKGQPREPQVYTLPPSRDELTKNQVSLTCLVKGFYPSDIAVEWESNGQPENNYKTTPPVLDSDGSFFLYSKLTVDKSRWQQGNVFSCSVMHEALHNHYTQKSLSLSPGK

Take `CC(C)C[C@@H]1NC(=O)[C@@H]2CCCN2C(=O)CNC(=O)[C@H](Cc2ccccc2)NC(=O)[C@H](Cc2c[nH]cn2)NC(=O)[C@@H](NC(=O)[C@@H](N)CO)CSSC[C@@H](C(=O)N[C@@H](CCCCN)C(N)=O)NC(=O)[C@H](C(C)C)NC(=O)[C@H](Cc2c[nH]c3ccccc23)NC(=O)[C@H]([C@@H](C)O)NC1=O` [RWJ 61177] (H-SCHFGPLTWVCK-NH2; disulfide 2-11): the IC50 at EBP [1] came to 90 µM; at EBP-Ig [2], 500 µM.

Take `CC(C)C[C@@H]1NC(=O)[C@@H]2CCCN2C(=O)CNC(=O)[C@H](Cc2ccccc2)NC(=O)[C@H](Cc2cnc[nH]2)NC(=O)[C@@H](NC(=O)[C@@H](N)CO)CSSC[C@@H](C(=O)N[C@@H](CCCCN)C(N)=O)NC(=O)[C@H](C(C)C)NC(=O)[C@H](Cc2c[nH]c3ccccc23)NC(=O)[C@H]([C@@H](C)O)NC1=O` [RWJ 61177] (H-SCHFGPLTWVCK-NH2; disulfide 2-11): the “FP/EBP-Ig IC50” value at EBP-Ig [3] (setting [5]) was “Inactive”. Further, the “competition in FP/EBP-Ig assay” value on EBP-Ig [3] was “inactive”. At EBP [4], the DPDPB cross-linking result was “deficient in crosslinking ability”. Also, the DPDPB cross-linking entry at EBP [4] (listed as 61177) is reported as “negative”. Also, in the assay with FDC-P1/hER cells, the “FDCP-P1-hER ED50” value was “Inactive” and the “EPO mimetic activity / proliferative capacity” value is “without proliferative capacity”.

With “GGLYACHMGPMTWVCQPLRG (GGKYACHMGPMTWVCQPKRG) [RWJ 61718]”, the IC50 with EBP-Ig [3] (setting [5]) amounted to 0.35 µM; in the assay with EBP [1] (setting [6]), 3 µM; in the assay with EBP-Ig [2] (setting [7]), 0.1 µM. The DPDPB cross-linking entry in the assay with EBP [4] is reported as “positive”. Also, in the assay with FDC-P1/hER cells, the EC50 worked out at 0.1 µM. The “EPO mimetic activity / proliferative capacity” value in the assay on FDC-P1/hER cells is “with proliferative capacity”.

For the compound “GGTXSCHFGPLTWVCKPQGG (GGT[Tyr(3,5-Br2)]SCHFGPLTWVCKPQGG-NH2; disulfide 6-15 (inferred)) [RWJ 62021, X = 3,5-dibromo-tyr]”, the IC50 is 5 µM with EBP-Ig [3] (setting [5]), 150 µM with EBP [1] (setting [6]) and 400 µM with EBP-Ig [2] (setting [7]). The “competition in FP/EBP-Ig assay” value with EBP-Ig [3] is given as “very efficient competitors”. The DPDPB cross-linking entry with EBP [4] is on record as “some crosslinking potential”. Besides, the “competition in EBP-bead binding assay” value with EBP [1] is on record as “very poorly”. Besides, the “FDCP-P1-hER ED50” value in the assay on FDC-P1/hER cells is recorded as “Inactive”. In addition, the “EPO mimetic activity / proliferative capacity” value with FDC-P1/hER cells is “without proliferative potential”. In the assay with EBP-Ig [2], the “competition in EBP-Ig binding assay” value is given as “very poorly”.

The compound GGTYSCHFGPLTWVCKPQ [RWJ 61596] registered an IC50 with EBP [1] (setting [6]) of 8 µM. For the same compound, the EC50 in the assay with FDC-P1/hER cells came to 0.08 µM.

For the compound GGTYSCHFGPLTWVCKPQGG [RWJ 61233], the IC50 with EBP-Ig [3] (setting [5]) stood at 0.5 µM; with EBP [1] (setting [6]), 5 µM; with EBP-Ig [2] (setting [7]) it was 1 µM. Also, in the assay with EBP-Ig [3], the “competition in FP/EBP-Ig assay” value is reported as “positive”. Also, in the assay with EBP [4], the DPDPB cross-linking entry is on record as “positive”. In addition, in the assay with EBP [1], the “competition in EBP-bead binding assay” value was “competes at similar levels in both the EBP-bead and EBP-Ig binding assays”. Also, the EC50 in the assay with FDC-P1/hER cells came to 0.1 µM. Also, the “EPO mimetic activity / proliferative capacity” value with FDC-P1/hER cells is given as “functions as an EPO mimetic”. In addition, in the assay with EBP-Ig [2], the “competition in EBP-Ig binding assay” value is “competes at similar levels in both the EBP-bead and EBP-Ig binding assays”.

Consider “YSCHFGPLTWVCK (YSCHFGPLYWVCK) [RWJ 61279]”, for which the DPDPB cross-linking entry in the assay with EBP [4] was “positive”. In the assay with EBP [1] (setting [6]), this compound returned an IC50 of 70 µM. Also, in the assay on FDC-P1/hER cells, the EC50 amounted to 8 µM and the “EPO mimetic activity / proliferative capacity” value is “with proliferative capacity”.

Source of the values: patent US6221608A, “Methods for identifying erythropoietin receptor binding protein” (Ortho Pharmaceutical Corporation, priority 1997, dated 2001).
